Data set [1] deals with T1, ToPif1 (Thermus oshimai, UniProt K7RJ88 64-507).
T1 sequence: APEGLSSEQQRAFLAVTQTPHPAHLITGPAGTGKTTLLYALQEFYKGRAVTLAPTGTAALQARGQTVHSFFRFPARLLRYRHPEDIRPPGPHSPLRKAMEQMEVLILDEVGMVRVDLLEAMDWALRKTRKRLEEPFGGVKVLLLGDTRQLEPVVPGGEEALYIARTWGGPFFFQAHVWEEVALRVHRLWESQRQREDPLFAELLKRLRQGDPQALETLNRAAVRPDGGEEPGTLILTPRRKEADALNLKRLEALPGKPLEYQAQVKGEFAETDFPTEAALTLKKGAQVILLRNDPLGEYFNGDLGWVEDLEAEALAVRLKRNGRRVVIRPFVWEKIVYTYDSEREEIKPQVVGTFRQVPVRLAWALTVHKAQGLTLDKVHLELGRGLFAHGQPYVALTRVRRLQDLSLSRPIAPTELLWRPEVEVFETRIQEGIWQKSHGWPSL
Description: crystal structure.

The target in data set [2] is T2, ToPif1 S69C/S405C (Thermus oshimai, UniProt K7RJ88 64-507, S69C;S405C).
T2 sequence: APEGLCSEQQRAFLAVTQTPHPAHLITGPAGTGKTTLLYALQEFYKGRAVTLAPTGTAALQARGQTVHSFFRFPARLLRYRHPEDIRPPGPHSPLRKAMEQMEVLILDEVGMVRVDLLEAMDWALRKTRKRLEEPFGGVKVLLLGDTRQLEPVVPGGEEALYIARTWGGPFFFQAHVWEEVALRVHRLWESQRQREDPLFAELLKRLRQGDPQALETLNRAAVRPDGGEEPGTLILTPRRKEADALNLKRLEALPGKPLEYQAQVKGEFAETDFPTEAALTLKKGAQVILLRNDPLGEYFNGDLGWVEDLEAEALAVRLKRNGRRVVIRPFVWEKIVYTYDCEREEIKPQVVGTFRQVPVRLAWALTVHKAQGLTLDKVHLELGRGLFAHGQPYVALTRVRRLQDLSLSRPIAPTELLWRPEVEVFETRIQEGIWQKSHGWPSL
Description: smFRET.

Data set [3] has as its target T1, ToPif1. As to the kind of experiment: DLS.
In data set [4] the target is T2, ToPif1 S69C/S405C. As to the kind of experiment: smFRET. The source holds these as a separate data set.

Like-named read-outs stand apart in the source and are kept apart here.

B1: S7D11 (dsDNA)
DNA 1: TTTTTTTCGCAGTGCTCG
DNA 2: CGAGCACTGCG
B1: in data set [1], the binding result is “binds”.

B2: S8D38 (dsDNA)
DNA 1: TTTTTTTTTCCGGATCACCATGGCGGACTCTCTGCTCTCGTGCTCC
DNA 2: GGAGCACGAGAGCAGAGAGTCCGCCATGGTGATCCGGA
Turning to B2, in data set [2], the binding result is “binds”.

In the case of TTTTTTTTTTTTTTT (ssDNA) [dT15], the binding result in data set [3] was “binds”.

For TTTTTTTT (ssDNA) [dT8], the binding result in data set [4] is given as “binds”.

The values above are taken from PMC8053095.
